Results taken from the Human Domainome abundance scans (Beltran et al. 2025).
± gives the uncertainty stated by the source.

B1: Nucleosome-remodeling factor subunit BPTF, residues 2862 to 2918; numbered along this chain, Q12830 (parent)
chain: TKKDTKLYCICKTPYDESKFYIGCDRCQNWYHGRCVGILQSEAELIDEYVCPQCQST

Variants of: B1
Experiment: abundance fitness (aPCA) (normalised: wild type 0, dead -1); higher = more abundant; growth selection in yeast, the domain comes from the species named
Settings: Homo sapiens

**Q.** For TKKDTKLYCICKTPYDESKFYIGCDRCQNWYHQRCVGILQSEAELIDEYVCPQCQST [G33Q], which abundance fitness is on record?
**A.** The abundance fitness was 0 ± 0.093.

**Q.** With TKKDTKLYCICKTPYDESKFYIGCDRCQNWYHVRCVGILQSEAELIDEYVCPQCQST [G33V] as the variant, how does the abundance fitness read?
**A.** Its abundance fitness is -0.098 ± 0.064.

**Q.** Which abundance fitness does the source give for TKKDTKLYCICKTPYDESKFYIGCDRCQNWYHYRCVGILQSEAELIDEYVCPQCQST [G33Y] here?
**A.** The abundance fitness was 0.053 ± 0.12.

**Q.** With TKKDTKLYCICKTPYDESKFYIGCDRCQNWYHCRCVGILQSEAELIDEYVCPQCQST [G33C] as the variant, how does the abundance fitness read?
**A.** Its abundance fitness is 0.196 ± 0.12.

**Q.** With TKKDTKLYCICKTPYDESKFYIGCDRCQNWYHARCVGILQSEAELIDEYVCPQCQST [G33A] as the variant, how does the abundance fitness read?
**A.** Its abundance fitness is -0.007 ± 0.064.

**Q.** Which abundance fitness does the source give for TKKDTKLYCICKTPYDESKFYIGCDRCQNWYYGRCVGILQSEAELIDEYVCPQCQST [H32Y] here?
**A.** The abundance fitness was -1 ± 0.17.

**Q.** For TKKDTKLYCICKTPYDESKFYIGCDRCQNWYPGRCVGILQSEAELIDEYVCPQCQST [H32P], which abundance fitness is on record?
**A.** Its abundance fitness is -0.95 ± 0.14.

**Q.** Which abundance fitness does the source give for TKKDTKLYCICKTPYDESKFYIGCDRCQNWYNGRCVGILQSEAELIDEYVCPQCQST [H32N] here?
**A.** The abundance fitness was -0.879 ± 0.17.

**Q.** With TKKDTKLYCICKTPYDESKFYIGCDRCQNWYMGRCVGILQSEAELIDEYVCPQCQST [H32M] as the variant, how does the abundance fitness read?
**A.** The abundance fitness was -0.944 ± 0.13.

**Q.** With TKKDTKLYCICKTPYDESKFYIGCDRCQNWYEGRCVGILQSEAELIDEYVCPQCQST [H32E] as the variant, how does the abundance fitness read?
**A.** Its abundance fitness is -0.929 ± 0.17.

**Q.** For TKKDTKLYCICKTPYDESKFYIGCDRCQNWYGGRCVGILQSEAELIDEYVCPQCQST [H32G], which abundance fitness is on record?
**A.** Its abundance fitness is -0.831 ± 0.12.

**Q.** With TKKDTKLYCICKTPYDESKFYIGCDRCQNWYDGRCVGILQSEAELIDEYVCPQCQST [H32D] as the variant, how does the abundance fitness read?
**A.** The abundance fitness was -0.9 ± 0.16.

**Q.** With TKKDTKLYCICKTPYDESKFYIGCDRCQNWYLGRCVGILQSEAELIDEYVCPQCQST [H32L] as the variant, how does the abundance fitness read?
**A.** Its abundance fitness is -1.02 ± 0.085.

**Q.** For TKKDTKLYCICKTPYDESKFYIGCDRCQNWYRGRCVGILQSEAELIDEYVCPQCQST [H32R], which abundance fitness is on record?
**A.** The abundance fitness was -0.808 ± 0.11.

**Q.** Which abundance fitness does the source give for TKKDTKLYCICKTPYDESKFYIGCDRCQNWYFGRCVGILQSEAELIDEYVCPQCQST [H32F] here?
**A.** The abundance fitness was -0.891 ± 0.11.

**Q.** Which abundance fitness does the source give for TKKDTKLYCICKTPYDESKFYIGCDRCQNWYSGRCVGILQSEAELIDEYVCPQCQST [H32S] here?
**A.** Its abundance fitness is -0.797 ± 0.094.

**Q.** With TKKDTKLYCICKTPYDESKFYIGCDRCQNWYAGRCVGILQSEAELIDEYVCPQCQST [H32A] as the variant, how does the abundance fitness read?
**A.** Its abundance fitness is -0.832 ± 0.12.

**Q.** Which abundance fitness does the source give for TKKDTKLYCICKTPYDESKFYIGCDRCQNWYTGRCVGILQSEAELIDEYVCPQCQST [H32T] here?
**A.** Its abundance fitness is -1.1 ± 0.13.

**Q.** Which abundance fitness does the source give for TKKDTKLYCICKTPYDESKFYIGCDRCQNWYKGRCVGILQSEAELIDEYVCPQCQST [H32K] here?
**A.** Its abundance fitness is -0.979 ± 0.15.

**Q.** For TKKDTKLYCICKTPYDESKFYIGCDRCQNWYIGRCVGILQSEAELIDEYVCPQCQST [H32I], which abundance fitness is on record?
**A.** The abundance fitness was -1 ± 0.15.

**Q.** Which abundance fitness does the source give for TKKDTKLYCICKTPYDESKFYIGCDRCQNWYWGRCVGILQSEAELIDEYVCPQCQST [H32W] here?
**A.** Its abundance fitness is -1.1 ± 0.24.

**Q.** Which abundance fitness does the source give for TKKDTKLYCICKTPYDESKFYIGCDRCQNWYQGRCVGILQSEAELIDEYVCPQCQST [H32Q] here?
**A.** Its abundance fitness is -0.898 ± 0.13.

**Q.** For TKKDTKLYCICKTPYDESKFYIGCDRCSNWYHGRCVGILQSEAELIDEYVCPQCQST [Q28S], which abundance fitness is on record?
**A.** Its abundance fitness is 0.048 ± 0.068.

**Q.** For TKKDTKLYCICKTPYDESKFYIGCDRCPNWYHGRCVGILQSEAELIDEYVCPQCQST [Q28P], which abundance fitness is on record?
**A.** Its abundance fitness is -0.193 ± 0.088.

**Q.** With TKKDTKLYCICKTPYDESKFYIGCDRCTNWYHGRCVGILQSEAELIDEYVCPQCQST [Q28T] as the variant, how does the abundance fitness read?
**A.** The abundance fitness was -0.081 ± 0.081.

**Q.** For TKKDTKLYCICKTPYDESKFYIGCDRCKNWYHGRCVGILQSEAELIDEYVCPQCQST [Q28K], which abundance fitness is on record?
**A.** Its abundance fitness is 0.084 ± 0.1.

**Q.** Which abundance fitness does the source give for TKKDTKLYCICKTPYDESKFYIGCDRCMNWYHGRCVGILQSEAELIDEYVCPQCQST [Q28M] here?
**A.** Its abundance fitness is -0.096 ± 0.082.

**Q.** For TKKDTKLYCICKTPYDESKFYIGCDRCNNWYHGRCVGILQSEAELIDEYVCPQCQST [Q28N], which abundance fitness is on record?
**A.** Its abundance fitness is -0.133 ± 0.12.

**Q.** For TKKDTKLYCICKTPYDESKFYIGCDRCRNWYHGRCVGILQSEAELIDEYVCPQCQST [Q28R], which abundance fitness is on record?
**A.** Its abundance fitness is -0.081 ± 0.073.

**Q.** Which abundance fitness does the source give for TKKDTKLYCICKTPYDESKFYIGCDRCWNWYHGRCVGILQSEAELIDEYVCPQCQST [Q28W] here?
**A.** The abundance fitness was -0.236 ± 0.11.

**Q.** Which abundance fitness does the source give for TKKDTKLYCICKTPYDESKFYIGCDRCQNWSHGRCVGILQSEAELIDEYVCPQCQST [Y31S] here?
**A.** Its abundance fitness is -0.693 ± 0.076.

**Q.** With TKKDTKLYCICKTPYDESKFYIGCDRCQNWDHGRCVGILQSEAELIDEYVCPQCQST [Y31D] as the variant, how does the abundance fitness read?
**A.** Its abundance fitness is -1.01 ± 0.17.

**Q.** Which abundance fitness does the source give for TKKDTKLYCICKTPYDESKFYIGCDRCQNWLHGRCVGILQSEAELIDEYVCPQCQST [Y31L] here?
**A.** Its abundance fitness is -0.279 ± 0.064.

**Q.** Which abundance fitness does the source give for TKKDTKLYCICKTPYDESKFYIGCDRCQNWHHGRCVGILQSEAELIDEYVCPQCQST [Y31H] here?
**A.** Its abundance fitness is -0.592 ± 0.13.

**Q.** For TKKDTKLYCICKTPYDESKFYIGCDRCQNWQHGRCVGILQSEAELIDEYVCPQCQST [Y31Q], which abundance fitness is on record?
**A.** Its abundance fitness is -0.706 ± 0.11.

**Q.** Which abundance fitness does the source give for TKKDTKLYCICKTPYDESKFYIGCDRCQNWFHGRCVGILQSEAELIDEYVCPQCQST [Y31F] here?
**A.** The abundance fitness was 0.01 ± 0.081.

**Q.** For TKKDTKLYCICKTPYDESKFYIGCDRCQNWRHGRCVGILQSEAELIDEYVCPQCQST [Y31R], which abundance fitness is on record?
**A.** The abundance fitness was -0.79 ± 0.082.

**Q.** For TKKDTKLYCICKTPYDESKFYIGCDRCQNWGHGRCVGILQSEAELIDEYVCPQCQST [Y31G], which abundance fitness is on record?
**A.** Its abundance fitness is -0.804 ± 0.079.

**Q.** Which abundance fitness does the source give for TKKDTKLYCICKTPYDESKFYIGCDRCQNWPHGRCVGILQSEAELIDEYVCPQCQST [Y31P] here?
**A.** Its abundance fitness is -0.787 ± 0.1.

**Q.** For TKKDTKLYCICKTPYDESKFYIGCDRCQNWVHGRCVGILQSEAELIDEYVCPQCQST [Y31V], which abundance fitness is on record?
**A.** Its abundance fitness is -0.341 ± 0.066.

**Q.** For TKKDTKLYCICKTPYDESKFYIGCDRCQNWEHGRCVGILQSEAELIDEYVCPQCQST [Y31E], which abundance fitness is on record?
**A.** The abundance fitness was -0.772 ± 0.11.

**Q.** With TKKDTKLYCICKTPYDESKFYIGCDRCQNWKHGRCVGILQSEAELIDEYVCPQCQST [Y31K] as the variant, how does the abundance fitness read?
**A.** Its abundance fitness is -0.649 ± 0.11.

**Q.** With TKKDTKLYCICKTPYDESKFYIGCDRCQNWWHGRCVGILQSEAELIDEYVCPQCQST [Y31W] as the variant, how does the abundance fitness read?
**A.** The abundance fitness was -0.527 ± 0.09.

**Q.** For TKKDTKLYCICKTPYDESKFYIGCDRCQNWCHGRCVGILQSEAELIDEYVCPQCQST [Y31C], which abundance fitness is on record?
**A.** Its abundance fitness is -0.206 ± 0.094.

**Q.** For TKKDTKLYCICKTPYDESKFYIGCDRCQNWTHGRCVGILQSEAELIDEYVCPQCQST [Y31T], which abundance fitness is on record?
**A.** Its abundance fitness is -0.723 ± 0.095.

**Q.** For TKKDTKLYCICKTPYDESKFYIGCDRCQNWMHGRCVGILQSEAELIDEYVCPQCQST [Y31M], which abundance fitness is on record?
**A.** The abundance fitness was -0.412 ± 0.088.

**Q.** For TKKDTKLYCICKTPYDESKFYIGCDRCQNWNHGRCVGILQSEAELIDEYVCPQCQST [Y31N], which abundance fitness is on record?
**A.** The abundance fitness was -0.573 ± 0.11.
